In patent US11174311B2, “Antibody against trimeric TNFα complex” (UCB BIOPHARMA SRL, priority 2016, dated 2021):
“Also recorded” adds a separate entry of the source.

Legend:
Human TNFα [1] = biological target: T1, Human TNFα (Homo sapiens, UniProt P01375); assay: Single cycle kinetics by surface plasmon resonance; format: binding; set-up: made in house
Method: For single cycle kinetics profiling of compound (1) to either directly immobilised TNFα or CA1974-captured TNFα surface plasmon resonance was performed at 25° C. using a BIAcore T200 (GE Healthcare). Human TNFα was tethered onto flow-channel (Fc)2 (2000 RU). CA1974 IgG (>10,000 response units) was tethered onto Fc3,4 and Fc1 blank immobilisation on a CMS Sensor Chip (GE Healthcare) via amine coupling chemistry. The surface was allowed to stabilise in HBS-P buffer (10 mM HEPES, pH 7.4, 0.15 M NaCl, 0.0005% (v/v) surfactant P20-GE Healthcare)+5% DMSO was used as the running buffer. Human TNFα was flowed over Fc4 to a capture level of ˜2,000 RU. Compound (1) was flowed over all four flow cells in series (1.875 μM, 3.75 μM, 7.5 μM and 30 μM) at 100 μl/min. Double referenced background-subtracted binding curves were produced using the T200 Evaluation software (version 1.0) following standard procedures.
Target sequence in this assay (P01375 77-233 limits assumed): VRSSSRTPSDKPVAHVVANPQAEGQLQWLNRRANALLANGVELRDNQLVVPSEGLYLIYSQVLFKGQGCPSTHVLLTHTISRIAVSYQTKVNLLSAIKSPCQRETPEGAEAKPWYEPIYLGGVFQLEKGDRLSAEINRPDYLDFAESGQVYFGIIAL

soluble form of TNFα = biological target: T2, soluble form of TNFα (Homo sapiens, UniProt P01375); assay: SPR on Biacore 4000 against immobilised soluble TNFα; format: binding; details: concentration of up to 100 μM
T2 construct: the immobilised soluble form of CD40L and the soluble form of TNFα
T2 sequence (P01375 77-233 limits assumed): as above
Method: In another experiment, BIO8898 was tested against the immobilised soluble form of CD40L and the soluble form of TNFα by SPR on a Biacore 4000 machine.

[2] = biological target: human TNFα complexed with compound (1) (Homo sapiens, UniProt P01375); assay: Size exclusion chromatography (HPLC) of mouse Fab with TNFα-compound complex; format: binding
Sequence of human TNFα complexed with compound (1) (P01375 77-233 limits assumed, one chain of several): as the sequence (P01375 77-233 limits assumed) above

Human TNFα [3] = biological target: T1, Human TNFα; assay: FACS assay, HEK JumpIn cells overexpressing TNF-RI, receptor-bound TNFα; format: cell-based; set-up: host or cells: HEK JumpIn cells (express the partner TNF-RI only); details: antibody at 1 and 10 μg/ml
Method: Recombinant antibodies were also tested for binding to compound-distorted TNFα in a FACS assay using human embryonic kidney (HEK) JumpIn cells, which overexpress TNF-RI after induction with doxycycline at 1 μg/ml for 2.5 hours. HEK cells were trypsinised and incubated for 2 h in medium to allow recovery of digested TNFRI levels. Human TNFα at 2 μg/mL was pre-incubated with 40 μM compound (1) or 0.4% DMSO for 1 h at 37° C. The pre-incubation mix was added to the cells for 1 h on ice (dilution 1:4, final concentrations: 0.5 μg/mL human-TNFα+/−[…] or 0.1% DMSO). […] (Secondary antibody: anti-mouse-Alexa488), before analysis for receptor-bound TNFα.
Target sequence in this assay (P01375 77-233 limits assumed): as above
Target sequence in this assay (P19438 30-455 partner): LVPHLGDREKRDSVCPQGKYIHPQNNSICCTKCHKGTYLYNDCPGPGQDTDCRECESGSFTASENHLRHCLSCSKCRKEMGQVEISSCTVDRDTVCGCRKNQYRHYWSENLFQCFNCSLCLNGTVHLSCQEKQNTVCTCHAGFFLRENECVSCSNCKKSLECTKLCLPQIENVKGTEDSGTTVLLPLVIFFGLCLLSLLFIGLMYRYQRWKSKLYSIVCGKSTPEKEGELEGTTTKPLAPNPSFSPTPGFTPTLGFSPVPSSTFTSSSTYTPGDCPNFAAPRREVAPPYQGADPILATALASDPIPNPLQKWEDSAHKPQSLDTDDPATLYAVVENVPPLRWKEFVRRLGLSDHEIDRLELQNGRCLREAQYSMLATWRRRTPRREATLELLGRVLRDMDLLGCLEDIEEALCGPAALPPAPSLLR

membrane-bound TNFα = assay: FACS assay, engineered NS0 cell line overexpressing membrane TNFα; format: cell-based; details: Fab fragments
Sequence of membrane-bound TNFα (P01375 90-233 limits assumed): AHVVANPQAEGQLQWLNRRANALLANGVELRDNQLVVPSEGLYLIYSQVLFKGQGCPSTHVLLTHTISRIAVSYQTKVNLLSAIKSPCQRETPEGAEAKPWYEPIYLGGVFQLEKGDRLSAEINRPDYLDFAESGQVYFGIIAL
Method: An engineered NS0 cell line, which overexpresses membrane TNFα, due to knock-out of the TACE cleavage site was incubated with 0.001-10 μM compound (1) or 0.1% DMSO for 1 h at 37° C. Cells were washed, fixed and stained with antibody Fab fragments at 0.01 or 0.1 μg/ml for 1 hour on ice. (Secondary antibody was anti-mouse Fab-DyeLight488 from Jackson ImmunoResearch).

## Cc1ccc(C)c(Cn2c(C(O)c3ccncc3)nc3ccc(-c4cnn(C)c4)cc32)c1 (centres unmarked) [compound (1)]
Human TNFα [1]; TNFα captured via antibody CA1974
  binding kinetics profile: fast on-fast off
Human TNFα [1]; directly immobilised apo-TNF
  binding kinetics profile: slow on-slow off

## O=C(NCc1cccc(-c2ccccc2)c1)c1cc(-c2cc(C(=O)NC(C(=O)O)C3CCCCC3)nc(C(=O)N3CCCC3CN3CCCC3)c2)cc(C(=O)N2CCCC2CN2CCCC2)n1 (centres unmarked) [BIO8898]
Soluble form of TNFα
  binding to TNFα: not to bind; also recorded: no binding

B1: CA185_01979: rat-derived conformation-selective antibody to TNFα-compound complex, LCVR SEQ ID NO: 22, HCVR SEQ ID NO: 23; used as mouse IgG or mouse Fab (antibody, V domains shown)
VH: EVHLVESGPGLVKPSQSLSLTCSVTGYSITNSYWDWIRKFPGNKMEWMGYINYSGSTGYNPSLKSRISISRDTSNNQFFLQLNSITTEDTATYYCARGTYGYNAYHFDYWGRGVMVTVSS
VL: DIQMTQSPASLSASLEEIVTITCQASQDIGNWLSWYQQKPGKSPHLLIYGTTSLADGVPSRFSGSRSGTQYSLKISGLQVADIGIYVCLQAYSTPFTFGSGTKLEIK
modifications: HCVR of 1979; LCVR of 1979
notes: used as mouse IgG or mouse Fab
[2]
  stoichiometry Fab : TNFα trimer: 1 Fab: 1 TNFα trimer
Human TNFα [3]; TNFα pre-incubated with DMSO
  staining with the DMSO control: no staining
Human TNFα [3]; TNFα pre-incubated with compound (1)
  staining / recognition of receptor-bound TNFα: only recognise TNFα which has been pre-incubated with compound (1)
membrane-bound TNFα; cells incubated with 0.1% DMSO
  staining with the DMSO controls: no staining
membrane-bound TNFα; cells incubated with compound (1)
  staining / recognition of membrane TNF: only recognise TNF which has been pre-incubated with compound (1)
